The values below come from publication PMC3326326.

Where two headings read alike, the source gives them in different places.

The target in series [1] is penta-His-tagged PfAlba3 (Plasmodium falciparum (3D7)). Briefly: AUC.
Series [2] concerns the target T1, PfAlba4 (Plasmodium falciparum 3D7, UniProt A0A5K1K8Y8 1-372).
T1 sequence: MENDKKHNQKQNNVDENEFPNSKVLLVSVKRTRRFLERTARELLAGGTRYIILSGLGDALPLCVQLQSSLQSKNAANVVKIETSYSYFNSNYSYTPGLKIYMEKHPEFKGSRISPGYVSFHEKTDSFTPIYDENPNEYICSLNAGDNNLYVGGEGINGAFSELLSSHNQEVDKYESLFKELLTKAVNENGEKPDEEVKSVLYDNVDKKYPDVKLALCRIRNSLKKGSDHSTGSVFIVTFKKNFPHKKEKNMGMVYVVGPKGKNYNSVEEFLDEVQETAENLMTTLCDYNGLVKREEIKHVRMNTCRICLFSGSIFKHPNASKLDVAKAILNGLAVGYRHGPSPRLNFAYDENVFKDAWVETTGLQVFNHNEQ
The experiment in a line: competition.

A further series concerns the target T2, PfAlba1 (Plasmodium falciparum 3D7, UniProt Q8IAX8 1-248).
T2 sequence: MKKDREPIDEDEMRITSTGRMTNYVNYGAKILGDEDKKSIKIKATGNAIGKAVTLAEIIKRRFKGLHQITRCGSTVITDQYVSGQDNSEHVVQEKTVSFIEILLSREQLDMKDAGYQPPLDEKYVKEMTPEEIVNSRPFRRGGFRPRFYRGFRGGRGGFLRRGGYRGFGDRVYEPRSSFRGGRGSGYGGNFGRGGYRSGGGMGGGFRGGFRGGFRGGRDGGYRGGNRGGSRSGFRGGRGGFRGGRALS
The experiment in a line: EMSA. A general note: In EMSA bound probe runs differently from free probe, usually more slowly.

The target in series [3] is T3, PfAlba3 (Plasmodium falciparum 3D7, UniProt Q8IJX8 1-107).
T3 sequence: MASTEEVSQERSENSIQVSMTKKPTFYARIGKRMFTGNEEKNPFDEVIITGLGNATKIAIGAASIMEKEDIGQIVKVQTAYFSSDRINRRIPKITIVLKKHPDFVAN
Briefly: EMSA.

The target of series [4] is T4, PfAlba2 (Plasmodium falciparum 3D7, UniProt Q8IDN4 1-211).
T4 sequence: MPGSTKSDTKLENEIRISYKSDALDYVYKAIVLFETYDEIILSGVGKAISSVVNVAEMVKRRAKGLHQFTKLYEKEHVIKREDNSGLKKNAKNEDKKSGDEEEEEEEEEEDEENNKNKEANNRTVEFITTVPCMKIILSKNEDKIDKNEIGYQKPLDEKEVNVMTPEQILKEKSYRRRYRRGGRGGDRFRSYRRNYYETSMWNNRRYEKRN
Briefly: EMSA.

For series [5], the target named is T1, PfAlba4. The experiment in a line: EMSA.
Series [6] addresses T1, PfAlba4. Briefly: competition. This is another data set of the same source.
Series [7] deals with T4, PfAlba2. The experiment in a line: EMSA. This is another data set of the same source.
Series [8] addresses T1, PfAlba4. The experiment in a line: EMSA. The source holds these as a separate data set.
In series [9] the target is T1, PfAlba4. Briefly: competition. This is another data set of the same source.
The target of series [10] is T3, PfAlba3. The experiment in a line: EMSA. The source holds these as a separate data set.
The target in series [11] is T4, PfAlba2. The experiment in a line: EMSA. The source holds these as a separate data set.

Turning to “penta-His-tagged PfAlba3 (natural protein)”, in series [1], the stoichiometry N turned out to be 2.

B1: HSP70 (dsDNA)
DNA 1: GCTAGTGCAAAAGGTTCAAAACCAAATTTACCAGAATCCAAT
DNA 2: ATTGGATTCTGGTAAATTTGGTTTTGAACCTTTTGCACTAGC
On to B1, for which the binding result with PfAlba4 [2] is “binds”.
On to AAAAAAAAAAAAAAAAAAAAAA (ssRNA) [polyA 22-mer], for which the binding result with PfAlba1, with PfAlba3 [3], in the series with PfAlba2 [4] and in the series with PfAlba4 [5] was “binds” throughout.

B2: Actin-II (dsDNA)
DNA 1: TCTGAAGAAGCTGTTGCTTTAGTAGTTGATAATGGAAGTGGT
DNA 2: ACCACTTCCATTATCAACTACTAAAGCAACAGCTTCTTCAGA
Consider B2, for which the binding result with PfAlba4 [2] is recorded as “binds”.
For the molecule AAAAAAAAAAAAAAAAAAAAAA (ssRNA) [polyA 22-mer, unlabeled], in the series with PfAlba4 [6], the binding result was “binds”.
Consider UUUUUUUUUUUUUUUUUUUUUU (ssRNA) [polyU 22-mer], for which the binding result with PfAlba2 [7] and with PfAlba4 [8] was “binds” in each case.

B3: Scr F1 (dsDNA)
DNA 1: GTACTTACTCTAATCTAGTCGTAGTATGTATGCCTCAATGAA
DNA 2: TTCATTGAGGCATACATACTACGACTAGATTAGAGTAAGTAC
In the case of B3, in the series with PfAlba4 [2], the binding result is listed as “binds”.

B4: TARE6 fragment 42 bp (F1) (dsDNA)
DNA 1: CCCAAGCTTACTTATATTAGGACCTATATTAGTTATCTGAGG
DNA 2: CCTCAGATAACTAATATAGGTCCTAATATAAGTAAGCTTGGG
For B4, the binding result with PfAlba4 [9] is “binds”.

B5: TARE6 (79 bp) (dsDNA)
DNA 1: CCCAAGCTTACTTATATTAGGACCTATATTAGTTATCTGAGGACCTATATTACTTATTTTAGGACCTATATTGAATTCC
DNA 2: GGAATTCAATATAGGTCCTAAAATAAGTAATATAGGTCCTCAGATAACTAATATAGGTCCTAATATAAGTAAGCTTGGG
Consider B5, for which the binding result in the series with PfAlba3 [10] and with PfAlba2 [11] was “binds” in each case.

The stoichiometry N is the number of molecules, sites or subunits per partner or assembly.
